Tests used:
Assay in all cases: cell-based or functional assay
[1] = target: pro-HGF (single-chain hepatocyte growth factor) (UniProt P14210)
[2] = target: Met receptor on A549 lung carcinoma cells (UniProt P08581)
[3] = target: soluble form of hepsin encompassing the entire extracellular domain (Arg45-Leu417) and a C-terminal His8 tag (human) (UniProt P05981)
Sequence of soluble form of hepsin encompassing the entire extracellular domain (Arg45-Leu417) and a C-terminal His8 tag (human) (P05981 45-162 limits assumed, chain 1 of 2): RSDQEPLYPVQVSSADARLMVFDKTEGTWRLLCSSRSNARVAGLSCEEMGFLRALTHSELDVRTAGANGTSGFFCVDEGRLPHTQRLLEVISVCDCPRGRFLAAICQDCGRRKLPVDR
Sequence of soluble form of hepsin encompassing the entire extracellular domain (Arg45-Leu417) and a C-terminal His8 tag (human) (P05981 other isoform, or with tags, fused parts or gaps limits assumed, chain 2 of 2): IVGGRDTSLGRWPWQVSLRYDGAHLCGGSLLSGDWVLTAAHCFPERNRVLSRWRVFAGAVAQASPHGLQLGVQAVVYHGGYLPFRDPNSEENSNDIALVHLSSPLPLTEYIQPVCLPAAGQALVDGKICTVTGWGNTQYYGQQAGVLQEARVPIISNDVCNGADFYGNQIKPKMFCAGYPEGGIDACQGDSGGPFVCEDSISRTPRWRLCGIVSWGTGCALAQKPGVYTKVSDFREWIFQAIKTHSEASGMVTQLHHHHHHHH

Sequence of Met receptor on A549 lung carcinoma cells (P08581 25-1390 limits assumed): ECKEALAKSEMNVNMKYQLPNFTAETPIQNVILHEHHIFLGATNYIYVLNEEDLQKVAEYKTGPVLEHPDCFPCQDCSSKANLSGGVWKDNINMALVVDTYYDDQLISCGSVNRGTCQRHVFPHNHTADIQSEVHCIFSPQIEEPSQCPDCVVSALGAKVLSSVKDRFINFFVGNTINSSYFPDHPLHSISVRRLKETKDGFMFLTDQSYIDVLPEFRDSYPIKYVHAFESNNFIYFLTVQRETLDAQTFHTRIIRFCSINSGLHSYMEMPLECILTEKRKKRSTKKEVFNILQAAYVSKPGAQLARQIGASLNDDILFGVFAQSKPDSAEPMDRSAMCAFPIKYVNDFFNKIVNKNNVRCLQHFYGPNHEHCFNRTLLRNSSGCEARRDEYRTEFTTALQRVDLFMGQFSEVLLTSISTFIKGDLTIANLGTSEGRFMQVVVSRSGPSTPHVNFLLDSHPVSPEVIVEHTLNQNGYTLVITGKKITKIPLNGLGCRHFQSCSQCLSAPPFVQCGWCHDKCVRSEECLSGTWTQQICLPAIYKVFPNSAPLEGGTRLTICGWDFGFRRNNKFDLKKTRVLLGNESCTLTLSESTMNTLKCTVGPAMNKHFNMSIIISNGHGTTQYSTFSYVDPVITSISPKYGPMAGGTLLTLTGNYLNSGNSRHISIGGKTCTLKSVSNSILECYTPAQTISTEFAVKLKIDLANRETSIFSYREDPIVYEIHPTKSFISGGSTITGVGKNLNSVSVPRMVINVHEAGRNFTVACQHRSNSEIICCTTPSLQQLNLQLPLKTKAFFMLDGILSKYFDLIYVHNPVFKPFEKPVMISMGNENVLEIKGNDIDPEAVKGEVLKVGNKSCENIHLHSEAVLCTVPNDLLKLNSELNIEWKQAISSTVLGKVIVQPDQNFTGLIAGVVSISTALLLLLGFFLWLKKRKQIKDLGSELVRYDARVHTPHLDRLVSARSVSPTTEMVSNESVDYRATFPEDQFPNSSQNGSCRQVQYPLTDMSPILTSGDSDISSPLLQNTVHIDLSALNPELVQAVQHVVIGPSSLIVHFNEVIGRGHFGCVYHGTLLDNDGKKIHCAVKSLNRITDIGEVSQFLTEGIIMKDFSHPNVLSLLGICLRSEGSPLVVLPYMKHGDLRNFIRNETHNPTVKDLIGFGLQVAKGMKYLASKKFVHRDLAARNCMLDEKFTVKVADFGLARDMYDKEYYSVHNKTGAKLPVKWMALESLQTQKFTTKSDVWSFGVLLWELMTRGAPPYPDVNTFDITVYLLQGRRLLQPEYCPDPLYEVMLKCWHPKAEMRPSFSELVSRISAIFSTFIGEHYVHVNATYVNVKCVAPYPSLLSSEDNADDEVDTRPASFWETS
Sequence of pro-HGF (single-chain hepatocyte growth factor) (P14210 32-728 limits assumed): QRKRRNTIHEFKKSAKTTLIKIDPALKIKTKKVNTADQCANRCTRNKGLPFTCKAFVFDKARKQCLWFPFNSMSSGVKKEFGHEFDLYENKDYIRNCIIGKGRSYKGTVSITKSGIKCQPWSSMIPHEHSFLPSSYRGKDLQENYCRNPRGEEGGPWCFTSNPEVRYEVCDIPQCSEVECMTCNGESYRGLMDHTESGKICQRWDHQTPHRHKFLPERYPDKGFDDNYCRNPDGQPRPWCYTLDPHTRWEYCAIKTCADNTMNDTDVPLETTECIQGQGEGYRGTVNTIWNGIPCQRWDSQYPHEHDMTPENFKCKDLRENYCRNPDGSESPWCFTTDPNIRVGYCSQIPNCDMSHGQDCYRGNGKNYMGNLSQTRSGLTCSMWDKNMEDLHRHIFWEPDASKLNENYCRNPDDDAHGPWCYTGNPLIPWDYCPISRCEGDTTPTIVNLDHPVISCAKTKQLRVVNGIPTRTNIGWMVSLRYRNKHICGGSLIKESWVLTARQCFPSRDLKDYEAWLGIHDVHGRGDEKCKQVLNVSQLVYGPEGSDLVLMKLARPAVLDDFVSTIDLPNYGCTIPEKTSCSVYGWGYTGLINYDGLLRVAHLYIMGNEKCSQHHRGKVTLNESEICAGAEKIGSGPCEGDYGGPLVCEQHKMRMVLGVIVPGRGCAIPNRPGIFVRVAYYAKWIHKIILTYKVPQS

Substance	percent of unlabelled pro-HGF (0.3 mg/ml) converted into HGF by 40 nM enzyme [1] [%]	Met phosphorylation in a kinase receptor assay (KIRA) with A549 cells: concentration of maximal activity [2] [ng/mL]	other results
HGFA (hepatocyte growth factor activator) comprising residues Val373-Arg407 (from UniProt Q04756 373-407) (enzyme)	> 95		
HGFHGFA (HGF produced by activation of pro-HGF with HGFA) (from UniProt P14210 32-728; P14210 32-728) (ligand)		250	
HGFhepsin (HGF produced by activation of pro-HGF with hepsin) (from UniProt P14210 32-728; P14210 32-728) (ligand)		250	
soluble form of HAI-1B (sHAI-1B) comprising the entire extracellular domain (from UniProt O43278 36-465)			IC50, inhibition of hepsin enzymatic activity towards S2366 (amidolytic assay) [3]: 21.1 nM
soluble form of hepsin encompassing the entire extracellular domain (Arg45-Leu417) and a C-terminal His8 tag (from UniProt P05981 45-162; P05981 163-417) (enzyme)	> 95		
